Results from publication PMC7585440, “Sclerostin inhibits Wnt signaling through tandem interaction with two LRP6 ectodomains” (Nature Communications, 2020).
One block for each binder: values may come before it. Bridges are numbered along the chain shown (N, C = ends). Where no end group is shown, it is not given here.

Tests used:
Details in all cases: both partners purified
[1] = target: T1, human LRP6 E1E2 with a C-terminal 10× His tag, labeled with the dye NT-647 (human, UniProt O75581 21-630, dye NT-647 (Monolith NT Protein Labeling kit)); experiment: MST; LRP6 E1E2 or E1 labeled with NT-647 at ~5 nM, unlabeled SOST proteins or peptides titrated; 20 mM Tris-Cl pH 7.0, 200 mM NaCl, 0.5 mg/ml BSA, 0.05% Tween 20; 22 °C; Monolith NT.115 Pico
T1 construct: Low-density lipoprotein receptor-related protein 6 (LRP6), human, ectodomains E1 and E2; the limits P21-P630 are printed for the co-expression construct; the MST construct was cloned into another vector (pAcGP67A); also called Labeled LRP6 E1E2; source: High Five insect cells (pAcGP67A), purified (Ni-NTA, HiTrapQ, SEC), no tag cleavage; not shown: His10, C-terminal, kept
T1 sequence (looked up): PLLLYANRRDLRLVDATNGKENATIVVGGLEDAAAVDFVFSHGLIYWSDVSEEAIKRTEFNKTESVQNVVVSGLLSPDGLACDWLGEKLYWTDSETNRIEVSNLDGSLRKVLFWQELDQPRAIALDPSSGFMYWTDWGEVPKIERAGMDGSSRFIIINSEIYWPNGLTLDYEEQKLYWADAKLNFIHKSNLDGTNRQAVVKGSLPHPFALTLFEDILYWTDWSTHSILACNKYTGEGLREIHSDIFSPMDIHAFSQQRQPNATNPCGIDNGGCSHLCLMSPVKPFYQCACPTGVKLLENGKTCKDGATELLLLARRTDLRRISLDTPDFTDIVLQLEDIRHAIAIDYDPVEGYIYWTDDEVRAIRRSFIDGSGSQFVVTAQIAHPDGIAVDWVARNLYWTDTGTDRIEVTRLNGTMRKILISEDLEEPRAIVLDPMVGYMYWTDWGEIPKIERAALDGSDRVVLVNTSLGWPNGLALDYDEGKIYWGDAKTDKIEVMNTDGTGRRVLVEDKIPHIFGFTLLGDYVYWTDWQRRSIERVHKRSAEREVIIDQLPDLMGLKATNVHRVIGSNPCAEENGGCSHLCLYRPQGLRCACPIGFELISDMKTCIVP

[2] = target: T2, human LRP6 E1 with a C-terminal 10× His tag, labeled with the dye NT-647 (human, dye NT-647 (Monolith NT Protein Labeling kit)); experiment: as above
T2 chain: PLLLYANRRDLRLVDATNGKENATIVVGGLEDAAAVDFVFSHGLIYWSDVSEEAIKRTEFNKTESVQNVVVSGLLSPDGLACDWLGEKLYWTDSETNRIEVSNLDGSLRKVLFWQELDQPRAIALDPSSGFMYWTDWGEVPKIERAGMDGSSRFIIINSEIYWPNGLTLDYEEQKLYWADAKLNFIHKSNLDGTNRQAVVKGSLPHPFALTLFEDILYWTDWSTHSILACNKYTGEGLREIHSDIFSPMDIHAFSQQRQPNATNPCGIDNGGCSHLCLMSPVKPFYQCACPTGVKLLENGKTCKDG

[3] = target: T3, human LRP6 E1 (P21-D325) with a C-terminal His tag (human, UniProt O75581 21-325, labeled with the dye NT-647 in the MST experiments (legends: Cy-5 dye-labeled)); experiment: MST; labeled LRP6 E1E2 or LRP6 E1 (~5 nM) titrated with unlabeled Smo-SOST, MBP-SOST, tags or peptides; 20 mM Tris-Cl pH 7.0, 200 mM NaCl, 0.5 mg/ml BSA, 0.05% Tween 20; 22 °C; three independent experiments
T3 construct: low-density lipoprotein receptor-related protein 6 (LRP6), human, ectodomain E1, residues P21-D325; The methods name a 10x His tag; also called LPR6 E1; source: High Five insect cells, secreted, purified (Ni-NTA, HiTrapQ, SEC)
T3 sequence (looked up): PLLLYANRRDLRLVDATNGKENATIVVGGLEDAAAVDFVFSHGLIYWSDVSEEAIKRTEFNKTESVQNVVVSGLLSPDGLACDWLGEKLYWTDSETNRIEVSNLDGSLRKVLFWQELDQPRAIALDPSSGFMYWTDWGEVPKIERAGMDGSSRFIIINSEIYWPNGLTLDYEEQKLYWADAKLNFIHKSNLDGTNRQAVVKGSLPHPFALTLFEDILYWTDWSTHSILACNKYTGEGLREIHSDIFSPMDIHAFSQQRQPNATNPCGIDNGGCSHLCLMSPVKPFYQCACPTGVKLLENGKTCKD

[4] = target: T4, human LRP6 E1E2 (P21-P630) with a C-terminal 10x His tag (human, UniProt O75581 21-630, labeled with the dye NT-647 in the MST experiments (legends: Cy-5 dye-labeled)); experiment: as above
T4 construct: low-density lipoprotein receptor-related protein 6 (LRP6), human, ectodomains E1 and E2, residues P21-P630; also called LPR6 E1E2; source: High Five insect cells, secreted, purified (Ni-NTA, HiTrapQ, SEC); for the crystal co-expressed with SOSTtr177
T4 sequence (looked up): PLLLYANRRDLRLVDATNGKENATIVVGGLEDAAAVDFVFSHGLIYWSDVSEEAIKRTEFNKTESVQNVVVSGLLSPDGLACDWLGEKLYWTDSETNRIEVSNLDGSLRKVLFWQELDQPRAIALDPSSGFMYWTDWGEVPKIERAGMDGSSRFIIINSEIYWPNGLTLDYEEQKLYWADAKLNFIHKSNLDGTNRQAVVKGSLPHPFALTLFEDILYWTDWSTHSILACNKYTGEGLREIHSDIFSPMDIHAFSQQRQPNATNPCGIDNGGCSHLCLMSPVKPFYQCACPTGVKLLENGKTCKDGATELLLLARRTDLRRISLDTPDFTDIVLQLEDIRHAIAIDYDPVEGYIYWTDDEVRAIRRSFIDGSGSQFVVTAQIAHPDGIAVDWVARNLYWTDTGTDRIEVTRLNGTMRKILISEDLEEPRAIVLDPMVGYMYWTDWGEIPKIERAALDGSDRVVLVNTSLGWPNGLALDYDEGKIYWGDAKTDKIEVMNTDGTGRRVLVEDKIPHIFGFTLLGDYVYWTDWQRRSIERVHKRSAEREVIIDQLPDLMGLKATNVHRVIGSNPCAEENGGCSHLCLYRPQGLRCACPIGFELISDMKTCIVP

[5] = target: T5, human LRP6 E1E2 (P21–P630) with a C-terminal 10× His tag (human, UniProt O75581 21-630); experiment: SEC-MALS; purified complex at 1 mg/ml on Superdex 200 increase 5/150 GL; 50 mM Tris pH 8.5, 150 mM NaCl; protein conjugate method
T5 construct: Low-density lipoprotein receptor-related protein 6 (LRP6), human, ectodomains E1 and E2, residues P21-P630; Unlabelled form: crystal, SEC-MALS and fluorescence-SEC; An anti-His-tag antibody was used for the western blots of the fluorescence-SEC experiment; also called LRP6 ectodomains 1 and 2; source: High Five insect cells (baculovirus), secreted, purified (Ni-NTA, HiTrapQ, SEC); co-expressed …
T5 sequence (looked up): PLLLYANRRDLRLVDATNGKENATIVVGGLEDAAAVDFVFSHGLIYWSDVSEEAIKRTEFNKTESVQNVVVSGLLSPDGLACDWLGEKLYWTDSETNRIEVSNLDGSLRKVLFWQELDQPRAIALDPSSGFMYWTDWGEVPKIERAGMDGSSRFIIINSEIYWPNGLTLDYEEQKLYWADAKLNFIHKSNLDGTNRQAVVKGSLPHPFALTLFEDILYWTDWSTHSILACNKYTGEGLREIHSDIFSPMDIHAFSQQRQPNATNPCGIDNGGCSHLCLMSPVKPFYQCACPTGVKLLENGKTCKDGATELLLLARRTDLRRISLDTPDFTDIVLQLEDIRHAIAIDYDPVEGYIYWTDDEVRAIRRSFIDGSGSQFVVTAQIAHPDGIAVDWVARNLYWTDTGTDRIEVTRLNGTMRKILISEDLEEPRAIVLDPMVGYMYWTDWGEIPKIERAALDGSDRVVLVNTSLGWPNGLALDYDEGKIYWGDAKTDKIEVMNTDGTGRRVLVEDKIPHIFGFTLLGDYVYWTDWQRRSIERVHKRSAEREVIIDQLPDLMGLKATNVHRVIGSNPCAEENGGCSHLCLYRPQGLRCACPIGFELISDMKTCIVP

LRP6 E1E2 H404K = target: T6, LRP6 E1E2 H404K (human, UniProt O75581 21-630, H404K); experiment: cross-linking; purified LRP6 E1E2 H404K–SOST_(tr177) N175K complex with BS3 at room temperature for 30 min; ~90 kDa band cut out, chymotrypsin, LC-MS/MS
T6 construct: Low-density lipoprotein receptor-related protein 6 (LRP6), human, ectodomains E1 and E2 (parent construct P21-P630) with H404K; Mutation introduced into the LRP6 E1E2 of the crystallised complex; also called LRP6 E1E2 with the H404K mutation; source: purified as a complex with SOST_(tr177) N175K
T6 sequence (looked up): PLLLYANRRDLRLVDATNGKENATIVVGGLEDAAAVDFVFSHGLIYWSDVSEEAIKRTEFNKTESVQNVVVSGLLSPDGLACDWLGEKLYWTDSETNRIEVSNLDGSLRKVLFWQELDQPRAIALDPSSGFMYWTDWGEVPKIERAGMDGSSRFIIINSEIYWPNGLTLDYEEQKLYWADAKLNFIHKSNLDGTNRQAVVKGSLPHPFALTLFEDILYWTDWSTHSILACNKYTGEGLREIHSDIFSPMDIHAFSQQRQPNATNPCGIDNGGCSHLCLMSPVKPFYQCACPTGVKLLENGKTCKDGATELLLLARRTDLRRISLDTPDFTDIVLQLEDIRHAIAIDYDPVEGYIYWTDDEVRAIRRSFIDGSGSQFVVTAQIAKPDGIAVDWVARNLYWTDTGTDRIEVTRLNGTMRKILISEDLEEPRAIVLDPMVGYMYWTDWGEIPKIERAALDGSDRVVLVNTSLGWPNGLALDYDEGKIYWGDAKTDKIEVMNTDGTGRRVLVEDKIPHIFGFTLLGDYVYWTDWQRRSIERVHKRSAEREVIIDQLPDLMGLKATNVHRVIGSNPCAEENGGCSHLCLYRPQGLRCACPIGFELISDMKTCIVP

B1: human SOST C-terminal tail peptide (residues 170–213) (peptide)
chain: not shown
Kd [1]: 5800 nM

B2: disulfide-bonded, circularized SOST loop 2 peptide (CLLPNAIGRGKWGC) (peptide)
peptide: CLLPNAIGRGKWGC
modifications: disulfide 1-14 (inferred)
notes: first cysteine of the printed peptide, for the ring-closing disulfide; last two residues of the printed peptide, with the second cysteine of the disulfide; source: synthetic peptide (Peptron)
Kd [1]: 5500 nM
Kd [2]: 5200 nM

B5: human SOSTtr177 (Q24-S177) with an N-terminal His6-SUMO tag (domain or fragment)
chain: QGWQAFKNDATEIIPELGEYPEPPPELENNKTMNRAENGGRPPHHPFETKDVSEYSCRELHFTRYVTDGPCRSAKPVTELVCSGQCGPARLLPNAIGRGKWWRPSGPDFRCIPDRYRAQRVQLLCPGGEAPRARKVRLVASCKCKRLTRFHNQS
notes: sclerostin (SOST), human, residues Q24-S177; also called Smo-SOSTtr177; source: High Five insect cells, secreted, purified; tag not cleaved; not shown: His6, N-terminal, kept; SUMO, N-terminal, kept
Kd [4]: 680 nM

B6: human SOST_(tr177) (Q24-S177) (domain or fragment, UniProt Q9BQB4 24-177, looked up)
chain: QGWQAFKNDATEIIPELGEYPEPPPELENNKTMNRAENGGRPPHHPFETKDVSEYSCRELHFTRYVTDGPCRSAKPVTELVCSGQCGPARLLPNAIGRGKWWRPSGPDFRCIPDRYRAQRVQLLCPGGEAPRARKVRLVASCKCKRLTRFHNQS
notes: Sclerostin (SOST), human, residues Q24-S177; N175 not glycosylated in this construct; also called crystallization construct; not shown: His6, N-terminal, cleaved; MBP, N-terminal, cleaved
stoichiometry N [5]: 1

B7: SOST_(tr177) N175K (domain or fragment, human, UniProt Q9BQB4 24-177, looked up)
chain: QGWQAFKNDATEIIPELGEYPEPPPELENNKTMNRAENGGRPPHHPFETKDVSEYSCRELHFTRYVTDGPCRSAKPVTELVCSGQCGPARLLPNAIGRGKWWRPSGPDFRCIPDRYRAQRVQLLCPGGEAPRARKVRLVASCKCKRLTRFHKQS
notes: Sclerostin (SOST), human, residues Q24-S177 (parent SOST_(tr177)) with N175K; also called SOSTtr177 with the N175K mutation; source: purified as a complex with LRP6 E1E2 H404K
binding result (LRP6 E1E2 H404K): binds

The remaining lines, values ahead:

Kd [3]: 780 nM
B3: human WT SOST (Q24-Y213) with an N-terminal His6-SUMO tag (natural protein)
chain: QGWQAFKNDATEIIPELGEYPEPPPELENNKTMNRAENGGRPPHHPFETKDVSEYSCRELHFTRYVTDGPCRSAKPVTELVCSGQCGPARLLPNAIGRGKWWRPSGPDFRCIPDRYRAQRVQLLCPGGEAPRARKVRLVASCKCKRLTRFHNQSELKDFGTEAARPQKGRKPRPRARSAKANQAELENAY
notes: sclerostin (SOST), human, residues Q24-Y213; also called Smo-SOST; Smo-SOST WT; source: High Five insect cells, secreted, purified; tag not cleaved; not shown: His6, N-terminal, kept; SUMO, N-terminal, kept

Kd [4]: 170 nM
B4: human WT SOST (Q24-Y213) with an N-terminal His6-MBP tag (natural protein)
chain: QGWQAFKNDATEIIPELGEYPEPPPELENNKTMNRAENGGRPPHHPFETKDVSEYSCRELHFTRYVTDGPCRSAKPVTELVCSGQCGPARLLPNAIGRGKWWRPSGPDFRCIPDRYRAQRVQLLCPGGEAPRARKVRLVASCKCKRLTRFHNQSELKDFGTEAARPQKGRKPRPRARSAKANQAELENAY
notes: sclerostin (SOST), human, residues Q24-Y213; also called MBP-SOST; MBP-SOST WT; source: High Five insect cells, secreted, purified; tag not cleaved; not shown: His6, N-terminal, kept; MBP, N-terminal, kept
